# Measurements taken from patent publication US20060165695A1 (Kyowa Kirin, published 2006).
# T1: hIGF-I partial peptide p1-18 (human)
# T1 peptide: GPETLSGAELVDALQFVC
# T2: hIGF-I partial peptide p14-30 (human)
# T2 peptide: CLQFVAGDRGFYFNKPTG
# T3: hIGF-I partial peptide p24-35 (human)
# T3 peptide: CYFNKPTGYGSSS
# T4: hIGF-I partial peptide p29-41 (human)
# T4 peptide: CTGYGSSSRRAPQT
# T5: hIGF-I partial peptide p36-47 (human)
# T5 peptide: RRAPQTGIVDEC
# T6: hIGF-I partial peptide p41-56 (human)
# T6 peptide: CTGIVDEAAFRSADLRR
# T7: hIGF-I partial peptide p52-70 (human)
# T7 peptide: CDLRRLEMYAAPLKPAKSA
# T8: hIGF-I partial peptide p53-61 (human)
# T8 peptide: DLRRLEMYC
# T9: hIGF-I partial peptide p61-70 (human)
# T9 peptide: CAPLKPAKSA
# T10: hIGF-I partial peptide p41-56C (human)
# T10 peptide: CTGIVDECCFRSCDLRR
# Assays:
# [1] = target: T11, human insulin-like growth factor I (hIGF-I) (human, UniProt P05019 49-118); assay: SPR (Biacore 2000), ratio of KA values
# T11 construct: mature; In the ELISAs it was immobilised as a conjugate with methylated BSA; In SPR it was amine-coupled to the chip; also called human IGF-I; recombinant hIGF-I
# Description: (§1) In order to analyze binding activity of the anti-hIGF antibody KM1468 to an antigen hIGF-I or hIGF-II, binding strengths of the anti-hIGF antibody KM1468, a commercially available anti-hIGF-I antibody sm1.2 and a commercially available anti-hIGF-II antibody S1F2 to hIGF-I and hIGF-II were measured in the following manner using the biosensor Biacore 2000 (manufactured by BIACORE) use of a surface plasmon resonance. HBS-EP (10 mM HEPES, 150 mM NaCl, 3 mM EDTA, 0.005% Tween 20, pH 7.4) (manufactured by BIACORE) was used for the dilution of analytes and as the reaction buffer.
# (§2) The reaction was carried out at 25° C. Association rate constant Kass and dissociation constant Kdiss were calculated from the binding reaction curves at respective concentrations, and the binding constant KA (M⁻¹) of each of these antibodies was calculated. The binding constant KA is calculated by KA=Kass/Kdiss.
# [2] = target: T12, human insulin-like growth factor II (hIGF-II) (human, UniProt P01344 25-91); assay: SPR (Biacore 2000), ratio of KA values
# T12 construct: In the ELISA it was immobilised as a conjugate with methylated BSA; In SPR it was amine-coupled to the chip; also called human IGF-II; methylated BSA-hIGF-II (immobilised conjugate)
# Description: as §1, §2
# [3] = target: T1, hIGF-I partial peptide p1-18; assay: competitive ELISA: KM1468 (4.0 µg/ml) on immobilised methylated BSA-hIGF-I, peptide as competitor
# [4] = target: T2, hIGF-I partial peptide p14-30; assay: as above
# [5] = target: T3, hIGF-I partial peptide p24-35; assay: as above
# [6] = target: T4, hIGF-I partial peptide p29-41; assay: as above
# [7] = target: T5, hIGF-I partial peptide p36-47; assay: as above
# [8] = target: T6, hIGF-I partial peptide p41-56; assay: as above
# [9] = target: T7, hIGF-I partial peptide p52-70; assay: as above
# [10] = target: T8, hIGF-I partial peptide p53-61; assay: as above
# [11] = target: T9, hIGF-I partial peptide p61-70; assay: as above
# [12] = target: T10, hIGF-I partial peptide p41-56C; assay: as above
# [13] = target: T11, human insulin-like growth factor I …; assay: SPR (Biacore 2000), hIGF-I amine-coupled to CM-5 chip, antibody as analyte, 25 °C; KA=Kass/Kdiss
# Description: as §1, §2
# [14] = target: T12, human insulin-like growth factor II …; assay: SPR (Biacore 2000), hIGF-II amine-coupled to CM-5 chip, antibody as analyte, 25 °C; KA=Kass/Kdiss
# Description: as §1, §2
# [15] = target: T13, human insulin (manufactured by Wako Pure Chemical Industries) (human, UniProt P01308 25-54; P01308 90-110); assay: competitive ELISA: KM1468 (0.6 µg/ml) on immobilised methylated BSA-hIGF-I or methylated BSA-hIGF-II, insulin as competitor
# T13 construct: Bought reagent
# From the text: Cross reactivity of the purified anti-hIGF antibody KM1468 with hIGF-II and human insulin was examined by the competitive ELISA shown below. As the antigens, hIGF-I (manufactured by Pepro Tech), hIGF-II (manufactured by Pepro Tech) and human insulin (manufactured Wako Pure Chemical Industries) were used.
# The methylated BSA-hIGF-I antigen prepared in Example 1(1) or a methylated BSA-hIGF-II antigen prepared in the same manner as in Example 1(1) was immobilized on a plate in accordance with the method shown in Example 1(4), at a concentration of 0.1 μg/ml in the case of the methylated BSA-hIGF-I antigen, or at a concentration of 1.0 μg/ml in the case of the methylated BSA-hIGF-II antigen, KM1468 diluted to 0.6 μg/ml was dispensed therein in 25 μl/well portions, and then each of 4-fold serial dilutions of hIGF-I, hIGF-II or human insulin prepared by starting from 20 μg/ml was dispensed in 25 μl/well portions, mixed and allowed to react at room temperature for 1 hour. After the reaction and subsequent washing with Tween-PBS, 1,000 times-diluted peroxidase-labeled rabbit anti-rat Ig antibody (manufactured by DAKO) was added in 50 μl/well portions as the secondary antibody in the case of the anti-hIGF antibody KM1468. […] The results are represented by relative values (%) wherein OD415 when an antibody alone is added is defined as 100.
# T11 sequence (P05019 49-118): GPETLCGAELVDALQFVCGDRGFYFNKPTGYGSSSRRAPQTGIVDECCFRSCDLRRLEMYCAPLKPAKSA
# T12 sequence (P01344 25-91 limits assumed): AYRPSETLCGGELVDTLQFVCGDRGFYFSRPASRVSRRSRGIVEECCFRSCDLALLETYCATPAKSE
# T13 sequence (P01308 25-54 limits assumed, chain 1 of 2): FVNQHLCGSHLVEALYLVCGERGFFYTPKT
# T13 sequence (P01308 90-110 limits assumed, chain 2 of 2): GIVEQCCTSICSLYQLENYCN
binder,measurement,setting,value
"anti-hIGF rat monoclonal antibody KM1468 (antibody, V domains shown, Rat IgG2b with kappa L chain, purified from ascites; The ranges 20-137 and 23-129 are counted from the first residue of the entry; also called anti-hIGF antibody KM1468; anti-hIGF rat antibody KM1468) VH: EVHLVESGGGLVQPGRSLKLSCAASGFTFSNYYMTWVRQAPTKGLEWVAYISSGGGSTYYRDSVKGRFTISRDNAKSTLYLQMDSLRSEDTATYYCTTEDYGYWFAYWGQGTLVTVSS VL: EIVLTQSPTTMAASPGEKVTITCRASSSVSYMHWFQQKSGTSPKPWIYGTSKLASGVPDRFSGSGSGTSYSLTISSMEAEDAATYYCLQRSSYPPTFGAGTKLELKR",fold KA versus S1F2,[1],~18 fold
same,fold KA versus sm1.2,[1],~42 fold
same,fold KA versus S1F2,[2],~3.6 fold
same,fold KA versus sm1.2,[2],~120 fold
same,binding result,[3],no binding
same,binding result,[4],no binding
same,binding result,[5],no binding
same,binding result,[6],no binding
same,binding result,[7],no binding
same,binding result,[8],no binding
same,binding result,[9],no binding
same,binding result,[10],no binding
same,binding result,[11],no binding
same,binding result,[12],no binding
same,Ka,[13],7.86e+09 M⁻¹
same,Ka,[14],8.63e+09 M⁻¹
same,binding result,[15],no binding
